Data on four molecules can be found in paper PMC3169591.

Series [1] concerns the target Klebsiella pneumoniae PriB (full-length, 104-amino acid protein) (Klebsiella pneumoniae (strain MGH78578)). The experiment in a line: SEC; each protein applied alone at approximately 3.4 g/l to a HiPrep HR 16/10 sephacryl S-100 column, 0.35 ml/min, 10 mM Tris-HCl pH 8, 10% glycerol, 0.5 M NaCl, 1 mM beta-mercaptoethanol; column calibrated with protein standards of known molecular weight.

Another series has as its target PriB (Klebsiella pneumoniae MGH78578, UniProt A6THB2 1-104). The experiment in a line: fluorescence anisotropy; apparent Kd; 1 mM Mg2+; 20 mM Tris-HCl pH 8, 50 mM NaCl, 4% glycerol, 1 mM MgCl2, 1 mM beta-mercaptoethanol, 0.1 mg/ml BSA, 1 nM DNA, 25 C. Conditions: protein: recombinant; tags: N-terminal His6 (pET28b); chain copies: 2; label: 3'-fluorescein; single strand.

Sequence of PriB (A6THB2 whole entry): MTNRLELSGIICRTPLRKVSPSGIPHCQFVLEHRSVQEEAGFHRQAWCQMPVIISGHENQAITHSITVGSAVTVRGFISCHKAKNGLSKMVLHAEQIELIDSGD
Sequence of Klebsiella pneumoniae PriB (full-length, 104-amino acid protein) (natural protein) (A6THB2 whole entry): as above

Broadly, the stoichiometry N is a count of units in the complex or per binding partner. In turn, “Klebsiella pneumoniae PriB (full-length, 104-amino acid protein) (natural protein)” came in with a stoichiometry N in series [1] of 2.
As for GCCGTGATCACCAATGCAGATTGACGAACCTTTGCTCCAGTAACC (ssDNA) [45-mer], the Kd with PriB worked out at 62 ± 14 nM.
On to GCGTGGGTAATTGTGCTTCAATGGACTGAC (ssDNA) [30-mer], for which the Kd in the series with PriB was found to be 45 ± 7 nM.
On the same count and under the same terms, for TAGCAATGTAATCGT (ssDNA) [15-mer] the value was 50 ± 3 nM.
